# Laboratory results as given in the DeepSol protein solubility set.
# Experiment: soluble on expression in E. coli; label from the status in PepcDB or PDB records
row,Sequence,soluble on expression in E. coli
1,MFMNKPFGSKRCEPFHESEHLCEAFAITEAILARYQRGKRSFTSSEKSGLAALIKRIPYDILVEVLDQSGFTPTSNATPPVDYLAMMEHTMTHGASITHALQYLNDLMTKCTGCPGIRTYYHNPNDDVLADPVHDTAALIDETTAVGKSVVTKQYLNIAGAHYIPLIHGDIVVGCVEVPRFSGNLEKLPSFPSLIRAVTCTAHKFIEEARINWNREKAEAMLQMATRLARDNLDETVLASSIMNTVKSLTESARCSLFLVKDDKLEAHFEDGNVVSIPKGTGIVGYVAQTGETVNIVDAYADDRFNREVDKATGYRTKTILCMPVMYEGTIVAVTQLINKLDLTTESGLRLPRVFGKRDEELFQTFSMFAGASLRNCRINDRLLKEKKKSDVILDVVTVLSNTDIRDVDGIVRHALHGAKKLLNADRSTLFLVDKERNELCSRMADSVAGKEIRFPCGQGIAGTVAASGVGENIQDAYQDPRFNREVDKQLGYRTQTILCEPIILNGEILAVVQLVNKLDTSGEVTVFTEDDRDTFRVFSLFAGISINNSHLLEFAVKAGREVMELNEHRATLFNKNVPSRAVKRVTAITKVEREAVLVCELPSFDVTDVEFDLFRARESTDKPLDVAAAIAYRLLLGSGLPQKFGCSDEVLLNFILQCRKKYRNVPYHNFYHVVDVCQTIHTFLYRGNVYEKLTELECFVLLITALVHDLDHMGLNNSFYLKTESPLGILSSASGNTSVLEVHHCNLAVEILSDPESDVFDGLEGAERTLAFRSMIDCVLATDMAKHGSALEAFLASAADQSSDEAAFHRMTMEIILKAGDISNVTKPFDISRQWAMAVTEEFYRQGDMEKERGVEVLPMFDRSKNMELAKGQIGFIDFVAAPFFQKIVDACLQGMQWTVDRIKSNRAQWERVLETRLSTSSGNNSSTR,not soluble
2,MSLANNKVHFIAIGGAVMHNLALALHHKGYLVSGSDDEIFEPSRTRLAAYNLLPAEMGWFPEKITTDLDAVILGMHARNDNPELQKARELGIKIYSFPEYIYEQSKDKQRIVIAGSHGKTTITAMIMHVLKTHKRKFDYLVGAKLDGFETMVQITDDAPIIIIEGDEYLTSPLDLTPKFLHYHHHIGLISGVAWDHINVYPTFEEYVKQFDAFADSTPKGGILIYSESDDLATLVADKPRPDVQAIGYSAPKHEIVNGITYLLTDKGKIELEVFGKHNLKNINAAKNVCLKIGITEAMFYDAIKTFKGAANRLEILGRGKHNVVFKDFAHAPSKLKATSKAVKKQFSDRKLIAVLELHTFSSLNKEFLSQYKDTYKAPDEPIVYFNPETVKHKRLEEITEADIIEAFDNPKLNVFTDSKKLEEFLFSHDWKHSNLLLMSSGNFGGIDLKKLTSHVLNQHAEGHHHHHH,soluble
3,MAHHHHHHMMSNTTSSGKGPTTFMWNSVPPSGDMPLHGCCHSLANYKDEQLILFGGGALHIIFNDVYCFDLKTSTWSYKETTNSEIVAPRISHSAVVHEDKMYVYGGQDLYMPTRFADVLVLDLITFTWSLIQQQATPAPDGPGDRRLHTAHIYRNCMYVLMGEPCNISNSFWFLDLTTLEWHPVHSSGWFGKPILPLLGHSAQVEGDYLYVFGGYHADSARRNGSPVYNNSLFSYHFPSNTWREVVPSSGPRPSPRYASAMAVIRGRVFIYGGDVDGEVYFDDFWCIDTNIPSSAASQSSSSSSYTTSLVAAPPAASSRWIDITLSCGRGRPSARSGHASAVAQGCLFVVGGELPGDRDVVYYSNRTYRYPLGYLTRLSLVELSSLWLAKCNPANIWMLDTQIPRHVRQLLVRNLNAQDRESTDDMMPCTRVVC,not soluble
4,MTTNKDHFMAKIQLVAQANLPTEYGIFKMVGFEFPDTKKEHVALVMGDISNADEPVLARIHSECLTGDALHSLKCDCGFQLATALKQIQEEGRGVLIYHREEGRGIGLINKIRAYSLQDKGMDTIEANLALGFKADERNFEVCADMFELLGVKKVRLMTNNPEKVETMKKAGINVVERVPLNVGENRYNTKYLDTKAKKMGHYIVHNNDEQHLMTCPHCQEEIILEHHHHHH,soluble
5,SHMPASVQLHTAVEMHHWCIPFSVDGQPAPSLRWLFNGSVLNETSFIFTEFLEPAANETVRHGCLRLNQPTHVNNGNYTLLAANPFGQASASIMAAFMDNPFEFNPEDPIPDTNSTSGDPVEKKDE,soluble
6,MITLGFMSLSRQHEADYSAELAKRAPEFGIRFIRFTPFDISPDTLRVKASVYHSASSTWNETEMAIPDYIYDRCFYGKDSHSQKAKPIVEWLKKYPKTEFIGRGLPDKWTVLHDLQQHSVINPYIPETIKVSRYEQIHSFLSKEKACILKPAFGAGGRGVILLKLGKKNITATYHIGKDKQTKTFSNQTSFKTWCKKVLQHQYLLQPYLNIQDKEQYPCDIRLFMEKNEAGEWNTVGKAVRRGYKHGLLANLSGGSDALTFDSWFEDIPKKQQVVLLDDVFSITQSVPYYLDERYGPLFELGLDICLAKDGRIWILDINSKPGRKSILRVSPEQKEQLYTCPLKRCQYLFSEQSQKGVLPRES,not soluble
7,MGSDKIHHHHHHMLSLKSEVLARHLPLFNGKSILLFGNVRDRFADQIRSISSHVAIFSHYFDYARHYNDVEFGLDCTTPANLGVFYWTKNKQECHYQLLQWLSQTAIGQQMLIIGENRAGVRSVEKLLSPFGQIAKIDSARRCGLYHFELQTIPQFDCQKFWKSYRLADLTVLSLPAAFSSTELDAGSQLLLSSFTNQDRLTGNVLDLGCGAGVIGAYLKQRFPAISLTMSDIHSMAIHSAQATLAKNKLTGTVIASDVFSHINDRFDLIVSNPPFHDDIDTAYHTVESLIMQAKNHLNYGGELRIVANAFLPYPDLLDKAFGSHQVVTKSNKFKVYSARV,not soluble
8,LEADKCKEREEKIILVSSANEIDVRPCPLNPNEHKGTITWYKDDSKTPVSTEQASRIHQHKEKLWFVPAKVEDSGHYYCVVRNSSYCLRIKISAKFVENEPNLCYNAQAIFKQKLPVAGDGGLVCPYMEFFKNENNELPKLQWYKDCKPLLLDNIHFSGVKDRLIVMNVAEKHRGNYTCHASYTYLGKQYPITRVIEFITLEENKPTRPVIVSPANETMEVDLGSQIQLICNVTGQLSDIAYWKWNGSVIDEDDPVLGEDYYSVENPANKRRSTLITVLNISEIESRFYKHPFTCFAKNTHGIDAAYIQLIYPVTNFQK,soluble
9,MSLSSPQFEENSFECPVEIGISNMCGKRDSMQDTSVVITNFLGIGFHLLSLFDGHSGIYSSCFCASQFPNCFANILSKNPQQSIEDALIHSFKEMNQKINEYKFNDGTAANVVLITPQRYFIANVGDSRCILVKKDSIIILNEDHTINNPDEVQRIRKLNGFIDHSKVNGEIVLTRTLGDIQCSSVCSCIPQITCHERGIDDICIVLCCDGVFDVLSNELVGEICRKKSNESASVLSSLIRDIAYNNGCKDNISCIVCKLMSEGHHHHHH,soluble
10,MSLENTDINISALLNVDIDKILKQTIKEKIEKLMEIELNAYLEENPGIKNGKYKRDLKTKYGEIKQLNVPRDRDSNFHTQVIEPYNRSIGMEDLIVSMYSNGISTRRIAGIMEDILGNKYSKSTISRITDLTIEEVYKFINRPLDKRYIAVFLDGLFFYLRRGNVDKEPVIFALGIKETGEYEVLGFYLTVKESHNAYKEVLEDLYNRGLKEPLLIVADGIKNLDEEVMEIYPRSEFQLCTIHYARGLKSNVREKDIDEITIDANKMFKCDNKEEAIIRFNDFKYKWKSKYPKVIYNTEKNLGKLLRFYNYPVNIRKSLKSTNAIERFNGEVRRRVKTISSFPDEDSAMKVFYYKSIEYNSKHAFRKMNGYYKCKDEIKEMFQKREGHHHHHH,not soluble
11,MGSDKIHHHHHHMKIALIQPKMNKRPMDTDLKTRMSPPLSLLTLMGLTPEGHEVIMVNENVEKIDYACGAELVGITITLDVMPRAVEIAEEFHRLGIPVVAGGIHVTSSPDECRGYFDAICIGAAERVWERMIEDAEESRLQQVYHDMTDFRGEEIASPAYHRIDKNRYLYTNIMTTSRGCPNRCGFCYNSCRNRMYIRRPVTDVLRDIEGLGTRHILFIDDNFIGVPAYTRELLNHLRGRELKWSAAVTTKIADYPDVLDLMAETGCQSLFIGFESINNSSLHGVNKDNQFEKYERIVTAIHSRGIMINASMVFGLDGDEPDVFQRTLDWLVKNKIETLTSHILTPYPGTELHGRMKEEGRILDHELSRYNTAHVVFQPKGMTAEELYKGYLWIYREFYSFPNIWRRRPEHKAQRKSFFLFNILYRKFGGLTSVLARIIPMRTVGRLAARISYRVK,not soluble
12,MGSDKIHHHHHHMLCSGYLGHDMEDDCDIIIIGAGIAGTACALRCARAGLSVLLLERAEIPGSKNLSGGRLYTHALAELLPQFHLTAPLERRITHESLSLLTPDGVTTFSSLQPGGESWSVLRARFDPWLVAEAEKEGVECIPGATVDALYEENGRVCGVICGDDILRARYVVLAEGANSVLAERHGLVTRPAGEAMALGIKEVLSLETSAIEERFHLENNEGAALLFSGRICDDLPGGAFLYTNQQTLSLGIVCPLSSLTQSRVPASELLTRFKAHPAVRPLIKNTESLEYGAHLVPEGGLHSMPVQYAGNGWLLVGDALRSCVNTGISVRGMDMALTGAQAAAQTLISACQHREPQNLFPLYHHNVERSLLWDVLQRYQHVPALLQRPGWYRTWPALMQDISRDLWDQGDKPVPPLRQLFWHHLRRHGLWHLAGDVIRSLRCL,not soluble
13,MSLGTQEDVLSLISGGFDSGVSSYLHIKRGSKVHYCFFNLGGPAHEIGVKQTAYYLWQKYGSSAKVRFIAIDFAPVVAEILEKIDDGQMGVVLKRMFMRTAGMVAEKFGIQALVTGEALGQVSSQTLTNLRHIDNVTDTLILRPLINWDKEDIIRLAREIGTEDFAKTMPEFCGVISKSPTVKAVKEKLEEEEAKFDFALLDQVVYNARQIDIRDIGKESLEKAPEVELVNSAEEGNAVVLDIRSPDEEDESPLEIVGVEVKHLPFYKLATQFGDLDQSKTYLLYCSRGVMSRLQALYLQEQGFNNVKVYREGHHHHHH,not soluble
14,MNADAPLKSYSGHHSETHKSESKKKKDKKTFEEEDDVENVKRKPAESSDDEVVVVVVKKDQKGKRGKKSKKPKKKQESSDDSSDNSDSSESSDDDKKSKKKKKKSKKDSSDSSDSSDSSDSSDDGKKKKKKKSKKDSSDDSSDSSDSSDSSDSSDDDKKKKKKSKKSKNKGSSSDSSDSSDDSSDDEKPKKKKKKSKKPKKAPKSDEEVTIKIIKKPKKKPEDLERRRHRVKKTEEHEEEKDKEEHHESNDENMEFDTRARGAPSSPKLTRRAKRSESSDDEVELQKTPEIDDNKPSRKDGDHDSDMEESEKSKKSSKKDHNHHHHHCCCGAQNEHEHTHHEEFSKTDKVVNKYHDCAKCQYKCPICT,not soluble
15,MSLGTVTITEMDCVDGVHRIGVATLDNTPSLNALTFDMLLQLHDQLIKWQHDPHVVCVVLSGAGEKAFCAGGDVRAMYHVMHNESKEATVEFCTKYFALEYECDYLIHTYNKPIIGWGEGIVMGGGMGLFMGTSHKVVTPISRLAMPEINIGLYPDVGGTWFLSQIDPEVGLFLGLTGALVNSSDAVTTGLADWLLLEEQYPTLLKELQKVPWGTSGAKELVSALLALLEEQIIDSKPTTQICPHLEQIKEACKGVDLNLIAQRIMAMEDSSPWIAGAKETFSSGSPITAHICFRQVKEYHRLPLADCFRLELSLSVRCALLGEFEEGVRARLIDRDGEPNWMFKTVSEVDEDVIDLLFTSLWADAEHPLAKLGEGHHHHHH,soluble
